Source: the RNAGym collection of RNA variant scans (doi:10.7554/elife.80360)

B1: HDV Ribozyme (parent)
chain: GGCCGGCAUGGUCCCAGCCUCCUCGCUGGCGCCGGCUGGGCAACAUUCCGAGGGGACCGUCCCCUCGGUAAUGGCGAAUGGGACCCA

Variants of: B1
Test: self-cleavage, relative activity (ratio to wild type); higher = more cleavage; co-transcriptional

Point of comparison: G1A U46A, self-cleavage 0.0755. Against it:
- G1U C85A — higher, 0.361
- G1U C85U — higher, 0.321
- G1C A43U — higher, 0.135
- G1C A43C — higher, 0.332
- G1U G39U — higher, 0.337
- G1U G39C — higher, 0.397
- G1U C66U — higher, 0.296
- G1U G67A — higher, 0.506
- G1A U60A — higher, 0.185
- G1U U65A — higher, 0.191
- G1U U65G — higher, 0.17
- G1U G59C — higher, 0.277
- G1U G59U — higher, 0.451
- G1U G59A — higher, 0.442
- G1U C30U — higher, 0.35
- G1U C30G — higher, 0.282
- G1C G52A — higher, 0.166
- G1C G52U — higher, 0.219
- G1A G74U — lower, 0.0563
- G1A G74C — lower, 0
- G1C U60C — lower, 0.0639
- G1U C32A — higher, 0.289
- G1U G11U — higher, 0.439
- G1U G11A — higher, 0.364
- G1U G50A — higher, 0.475
- G1U G50C — higher, 0.203
- G2A A42U — higher, 0.0804
- G2A A42C — lower, 0.0432
- G2A A42G — lower, 0.0302
- G1U A83G — higher, 0.461
- G1U A83C — higher, 0.259
- G1A G73C — lower, 0.0739
- G1U C19A — higher, 0.383
- G1U C19G — higher, 0.348
- G1U A51U — higher, 0.462
- G1U G10A — higher, 0.387
- G1U C75A — higher, 0.277
- G1U C75U — higher, 0.321
- G1C G6U — higher, 0.217
- G1A G80C — higher, 0.119
- G1A G29C — higher, 0.181
- G1C A51C — higher, 0.133
- G1C A51G — higher, 0.396
- G1C C61U — higher, 0.185
- G1C C61G — lower, 0.0504
- G1U U69C — higher, 0.259
- G1U U69A — higher, 0.332
- G1A G25U — lower, 0.0462
- G1A G25A — lower, 0.0739
- G1C C48A — higher, 0.293
- G1C C84U — higher, 0.128
- G1C C84A — higher, 0.166
- G1A U20G — lower, 0
- G1C G53U — higher, 0.213
- G1C G53C — higher, 0.332
- G1C A87U — higher, 0.104
- G1A G82C — higher, 0.133
- G2A A45C — lower, 0.0723
- G2A A45G — higher, 0.0779
- G2A A45U — higher, 0.111
- G1U A16U — higher, 0.262
- G1U A16G — higher, 0.256
- G1U A16C — higher, 0.277
- G1C G76U — higher, 0.115
- G1A G38C — lower, 0.0405
- G1C C26A — higher, 0.166
- G1C C26G — higher, 0.227
- G1C G28A — lower, 0.0405
- G1A C64A — higher, 0.131
- G1A C64U — higher, 0.101
- G1C C14A — higher, 0.0811
- G1C C14G — lower, 0.0615
- G1C G59U — lower, 0.0437
- G1C G59A — higher, 0.19
- G1A G17A — higher, 0.0811
- G1A U46G — higher, 0.138
- G1U G52A — higher, 0.356
- G1U G52U — higher, 0.372
- G1U G52C — higher, 0.332
- G1U G53U — higher, 0.355
- G1U G53C — higher, 0.283
- G1U G53A — higher, 0.32
- G1U G68C — higher, 0.431
- G1U A56G — higher, 0.521
- G1U A56U — higher, 0.394
- G1U G25U — higher, 0.248
- G1C G68A — higher, 0.158
- G1A G50A — lower, 0
- G1U G31U — higher, 0.385
- G1U G31C — higher, 0.356
- G1U G17U — higher, 0.309
- G1C G73A — higher, 0.201
- G1U C64U — higher, 0.451
- G1C C30G — higher, 0.128
- G2A A16G — higher, 0.237
- G2A A16C — lower, 0.0733
- G2A A51C — higher, 0.203
- G2A A51U — higher, 0.155
- G1C G40U — higher, 0.189
- G1C G40A — higher, 0.111
- G1U A70C — higher, 0.302
- G1U A70G — higher, 0.536
- G1U A77G — higher, 0.406
- G1U A77C — higher, 0.494
- G1C U27A — higher, 0.185
- G1C U27G — higher, 0.277
- G1A U12A — lower, 0.0415
- G1A G67A — lower, 0.0665
- G1A G67C — lower, 0
- G1A U65C — higher, 0.0875
- G1A G5C — lower, 0
- G1U C18G — higher, 0.151
- G1U C58A — higher, 0.237
- G1U C58U — higher, 0.401
- G1A G76A — higher, 0.462
- G1A G76C — higher, 0.185
- G1A G76U — higher, 0.185
- G1U C36U — higher, 0.318
- G1U C36G — higher, 0.306
- G2A A71G — higher, 0.241
- G2A A71C — higher, 0.13
- G1A G6C — higher, 0.151
- G1A G6U — lower, 0
- G1C A70C — higher, 0.185
- G1U G55A — higher, 0.208
- G1U G55U — higher, 0.455
- G1U C49U — higher, 0.391
- G1U G29C — higher, 0.292
- G1U G29U — higher, 0.308
- G1C A56U — higher, 0.17
- G1C A77C — lower, 0
- G1C A77G — lower, 0
- G1U G80U — higher, 0.479
- G1A U69C — higher, 0.104
- G1A U69G — higher, 0.369
- G1C C3G — higher, 0.443
- G1U G54U — higher, 0.358
- G1U C44G — higher, 0.271
- G1U C44A — higher, 0.479
- G1U C48A — higher, 0.465
- G2A — higher, 0.2
- G1U C4A — higher, 0.277
- G1U C4U — higher, 0.251
- G1C G29C — lower, 0.0665
- G1C C85A — higher, 0.161
- G1U U23G — higher, 0.277
- G1U U23C — higher, 0.665
- G1U U23A — higher, 0.203
- G1U G38A — higher, 0.422
- G1U G38C — higher, 0.369
- G1U U60A — higher, 0.343
- G1C C36A — higher, 0.151
- G1U C13A — higher, 0.321
- G1C C21U — lower, 0
- G1C C21G — lower, 0
- G1C C21A — lower, 0
- G1U G28A — higher, 0.292
- G1U G28C — higher, 0.185
- G1A G34C — lower, 0
- G1A G34A — higher, 0.136
- G1A G2U — higher, 0.852
- G1U G2A — higher, 0.262
- G1C U69G — higher, 0.208
- G2A A43U — lower, 0.0203
- G1C A8U — higher, 0.0978
- G1C A8C — lower, 0
